# Test results published in patent US20230235058A1 (OXFORD UNIVERSITY INNOVATION, published 2023).
# Numbering of substitutions follows the chain as printed. In names and notes the source's numbering stands.
# B1: humanised 2.8.6 hIgG1 D265A G236D A330R (antibody)
# heavy: QVTLKESGPALVKPTQTLTLTCTVSGFSLTTYGVHWIRQPPGKALEWLGVMWPGGRTSYNPSLKSRLTITKDNSKSQVVLTMTNMDPVDTATYYCVRGDYEYDYYAMDYWGQGTLVTVSSASTKGPSVFPLAPSSKSTSGGTAALGCLVKDYFPEPVTVSWNSGALTSGVHTFPAVLQSSGLYSLSSVVTVPSSSLGTQTYICNVNHKPSNTKVDKKVEPKSCDKTHTCPPCPAPELLDGPSVFLFPPKPKDTLMISRTPEVTCVVVAVSHEDPEVKFNWYVDGVEVHNAKTKPREEQYNSTYRVVSVLTVLHQDWLNGKEYKCKVSNKALPRPIEKTISKAKGQPREPQVYTLPPSREEMTKNQVSLTCLVKGFYPSDIAVEWESNGQPENNYKTTPPVLDSDGSFFLYSKLTVDKSRWQQGNVFSCSVMHEALHNHYTQKSLSLSPGK
# light: EIVLTQSPATLSLSPGERATLSCRASSSVSYMHWYQQKPGQAPRPLIYATSNRATGIPARFSGSGSGTDYTLTISSLEPEDFAVYYCHQWSSNPYTFGQGTKLEIKRTVAAPSVFIFPPSDEQLKSGTASVVCLLNNFYPREAKVQWKVDNALQSGNSQESVTEQDSKDSTYSLSSTLTLSKADYEKHKVYACEVTHQGLSSPVTKSFNRGEC
# notes: Fc variant with the variable domains of humanised 2.8.6; copies: 2 + 2
# B2: humanised 2.8.6 hIgG1 D265A P238D (antibody)
# heavy: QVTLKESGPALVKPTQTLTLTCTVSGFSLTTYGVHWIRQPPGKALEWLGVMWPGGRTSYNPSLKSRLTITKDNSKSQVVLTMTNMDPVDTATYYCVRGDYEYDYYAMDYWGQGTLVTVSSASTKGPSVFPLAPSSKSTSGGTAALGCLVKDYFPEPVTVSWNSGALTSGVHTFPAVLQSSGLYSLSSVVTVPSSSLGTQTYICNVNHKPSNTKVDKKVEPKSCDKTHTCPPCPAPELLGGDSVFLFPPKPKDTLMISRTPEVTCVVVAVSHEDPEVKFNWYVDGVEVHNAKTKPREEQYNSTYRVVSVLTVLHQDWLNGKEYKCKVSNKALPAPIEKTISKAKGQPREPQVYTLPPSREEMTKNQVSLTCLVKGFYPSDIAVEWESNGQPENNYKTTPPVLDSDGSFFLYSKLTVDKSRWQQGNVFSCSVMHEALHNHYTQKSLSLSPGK
# light: B1 light
# notes: as for B1
# B3: humanised 2.8.6 hIgG1 N297A (antibody)
# heavy: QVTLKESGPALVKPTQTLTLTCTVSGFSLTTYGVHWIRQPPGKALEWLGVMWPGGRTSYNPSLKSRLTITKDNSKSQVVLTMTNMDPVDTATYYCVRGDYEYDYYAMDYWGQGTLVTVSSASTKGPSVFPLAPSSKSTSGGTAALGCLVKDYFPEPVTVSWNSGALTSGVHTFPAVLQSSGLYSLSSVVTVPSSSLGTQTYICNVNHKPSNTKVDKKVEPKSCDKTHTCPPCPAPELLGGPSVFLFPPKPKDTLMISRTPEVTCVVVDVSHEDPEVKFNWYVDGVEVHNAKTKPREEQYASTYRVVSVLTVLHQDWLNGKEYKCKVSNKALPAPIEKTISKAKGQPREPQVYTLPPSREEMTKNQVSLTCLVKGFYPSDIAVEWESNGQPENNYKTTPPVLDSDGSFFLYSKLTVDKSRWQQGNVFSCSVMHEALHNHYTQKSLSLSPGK
# light: B1 light
# notes: as for B1
# B4: humanised 2.8.6 hIgG1 K322A (antibody)
# heavy: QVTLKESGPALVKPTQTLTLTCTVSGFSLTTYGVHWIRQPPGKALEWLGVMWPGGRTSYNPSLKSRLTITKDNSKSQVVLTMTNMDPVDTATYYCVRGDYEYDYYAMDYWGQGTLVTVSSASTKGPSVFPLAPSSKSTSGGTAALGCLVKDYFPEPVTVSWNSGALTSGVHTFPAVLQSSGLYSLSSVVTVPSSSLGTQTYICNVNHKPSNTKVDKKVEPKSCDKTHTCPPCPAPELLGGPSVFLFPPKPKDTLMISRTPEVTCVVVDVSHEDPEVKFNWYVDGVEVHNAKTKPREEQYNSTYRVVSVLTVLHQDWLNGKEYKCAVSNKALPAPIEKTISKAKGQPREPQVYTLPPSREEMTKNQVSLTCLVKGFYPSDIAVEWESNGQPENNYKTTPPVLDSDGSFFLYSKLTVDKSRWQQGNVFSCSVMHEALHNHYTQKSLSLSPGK
# light: B1 light
# notes: as for B1
# Columns and labels:
# human FcRn = molecular target: T1, human FcRn (human, UniProt P55899 24-297; P61769 21-119, limits assumed, biotinylated); experiment: SPR, pH6.0
# T1 construct: bought; also called FcRn pH6
# T1 sequence (P55899 24-297 limits assumed, chain 1 of 2): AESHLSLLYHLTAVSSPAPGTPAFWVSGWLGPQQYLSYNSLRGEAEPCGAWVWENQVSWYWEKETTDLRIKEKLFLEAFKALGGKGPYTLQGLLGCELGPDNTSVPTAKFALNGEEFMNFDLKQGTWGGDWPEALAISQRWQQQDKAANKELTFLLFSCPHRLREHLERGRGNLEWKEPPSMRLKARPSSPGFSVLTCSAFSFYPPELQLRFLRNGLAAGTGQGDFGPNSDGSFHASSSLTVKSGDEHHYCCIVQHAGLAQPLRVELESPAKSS
# T1 sequence (P61769 21-119 limits assumed, chain 2 of 2): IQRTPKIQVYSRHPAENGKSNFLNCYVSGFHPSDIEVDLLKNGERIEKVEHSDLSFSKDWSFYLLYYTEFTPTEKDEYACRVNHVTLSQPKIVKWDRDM
# Protocol: (§1) For the high affinity FcR interactions (FcγR1A, and also FcRn assessed at pH6.0) the binding was assessed in a kinetic analysis with antibody as analyte. […] Reference flow cell 1 was left empty in all channels. Purified antibody was then injected at a single concentration and on/off rates calculated by curve fitting on BiaEvaluation software. […] IgG Fc has two binding sites for FcRn so this assessment performed with FcRn immobilised at high density provides an avidity estimate for the interaction rather than a true KD.
# human FcγR1A [1] = molecular target: T2, human FcγR1A (human, UniProt P12314 16-288, biotinylated); experiment: SPR 37C, kinetic
# T2 construct: bought; also called CD64A
# T2 sequence (P12314 16-288): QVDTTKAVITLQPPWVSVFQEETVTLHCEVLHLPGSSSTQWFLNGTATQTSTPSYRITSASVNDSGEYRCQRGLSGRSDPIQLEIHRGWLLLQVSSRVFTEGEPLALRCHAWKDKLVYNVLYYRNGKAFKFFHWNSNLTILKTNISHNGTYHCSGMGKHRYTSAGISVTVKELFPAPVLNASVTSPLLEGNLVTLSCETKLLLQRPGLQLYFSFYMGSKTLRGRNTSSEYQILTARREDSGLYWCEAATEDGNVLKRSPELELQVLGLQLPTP
# Protocol: (§2) For the high affinity FcR interactions (FcγR1A, and also FcRn assessed at pH6.0) the binding was assessed in a kinetic analysis with antibody as analyte. […] Reference flow cell 1 was left empty in all channels. Purified antibody was then injected at a single concentration and on/off rates calculated by curve fitting on BiaEvaluation software.
# human FcγR2A 131R [2] = molecular target: T3, human FcγR2A 131R (human, UniProt P12318 34-217); experiment: SPR 37C, steady state;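 further: fc variants captured on chip-bound human BTLA ectodomain, recombinant FcγR ectodomains injected as analyte at varied concentrations, double-referenced equilibrium binding fitted to Langmuir model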
# T3 construct: extracellular domain
# T3 sequence (looked up): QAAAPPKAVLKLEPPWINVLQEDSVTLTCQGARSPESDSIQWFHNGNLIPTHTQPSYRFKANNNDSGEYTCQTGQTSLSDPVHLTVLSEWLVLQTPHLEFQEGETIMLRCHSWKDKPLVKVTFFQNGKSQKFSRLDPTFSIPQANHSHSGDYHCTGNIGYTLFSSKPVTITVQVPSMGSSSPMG
# human FcγR2A 131H [3] = molecular target: T4, human FcγR2A 131H (human, UniProt P12318 34-217); experiment: SPR 37C, steady state;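 further: fc variants captured on chip-bound human BTLA ectodomain, recombinant FcγR ectodomains injected as analyte at varied concentrations, double-referenced equilibrium binding fitted to Langmuir model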
# T4 construct: extracellular domain
# T4 sequence (looked up): T3 sequence (looked up) with R134H
# human FcγR3A 158F [4] = molecular target: T5, human FcγR3A 158F (human, UniProt P08637 17-208); experiment: SPR 37C, steady state;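 further: fc variants captured on chip-bound human BTLA ectodomain, recombinant FcγR ectodomains injected as analyte at varied concentrations, double-referenced equilibrium binding fitted to Langmuir model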
# T5 construct: extracellular domain
# T5 sequence (P08637 17-208): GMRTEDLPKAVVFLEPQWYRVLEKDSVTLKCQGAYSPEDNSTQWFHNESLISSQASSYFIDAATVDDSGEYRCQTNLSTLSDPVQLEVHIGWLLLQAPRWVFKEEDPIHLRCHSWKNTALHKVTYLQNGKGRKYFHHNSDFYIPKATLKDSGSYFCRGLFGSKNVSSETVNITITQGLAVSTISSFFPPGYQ
# human FcγR3A 158V [5] = molecular target: T6, human FcγR3A 158V (human, UniProt P08637 17-208); experiment: SPR 37C, steady state;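 further: fc variants captured on chip-bound human BTLA ectodomain, recombinant FcγR ectodomains injected as analyte at varied concentrations, double-referenced equilibrium binding fitted to Langmuir model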
# T6 construct: extracellular domain
# T6 sequence (P08637 17-208 F176V): as the sequence (P08637 17-208) above, with F160V counted along it
# human FcγR3B [6] = molecular target: T7, human FcγR3B (human, UniProt O75015 17-200, limits assumed); experiment: SPR 37C, steady state
# T7 construct: extracellular domain; also called CD16B
# T7 sequence (O75015 17-200 limits assumed): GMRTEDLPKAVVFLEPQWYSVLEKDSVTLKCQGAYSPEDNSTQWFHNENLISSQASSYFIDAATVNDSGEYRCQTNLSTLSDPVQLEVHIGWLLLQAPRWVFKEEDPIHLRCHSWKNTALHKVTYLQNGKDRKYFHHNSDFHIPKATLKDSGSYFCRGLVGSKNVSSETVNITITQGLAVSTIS
# human FcγR2B [7] = molecular target: T8, human FcγR2B (human, UniProt P31994 43-217); experiment: SPR 37C, steady state; hIgG1 D265A G236D A330R Fc variant
# T8 construct: extracellular domain; also called hFcγR2B; CD32B
# T8 sequence (looked up): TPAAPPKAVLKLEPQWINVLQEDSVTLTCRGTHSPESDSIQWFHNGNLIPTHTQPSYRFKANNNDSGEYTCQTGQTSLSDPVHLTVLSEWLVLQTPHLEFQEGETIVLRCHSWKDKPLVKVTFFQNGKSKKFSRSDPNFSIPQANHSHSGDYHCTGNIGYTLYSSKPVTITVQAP
# Protocol: For the low affinity FcγRs (FcγR2A, FcγR2B, FcγR3A and FcγR3B) the interactions were assessed by surface plasmon resonance with the recombinantly expressed FcRs (extracellular domains only) as analyte. […] The 2.8.6 Fc variant to be assessed was then captured (approx. 500-1000 response units) in flow cell 2 of each channel. Steady state affinity analysis was then performed by injecting varying concentrations of FcR in multiple cycles and measuring equilibrium binding. Double referencing was used (subtracting the signal in the reference Fc1 and also subtracting the signal from a blank zero concentration injection). KDs were calculated from the Langmuir curves (plotting equilibrium binding against analyte concentration to determine the concentration required for half maximal binding).
# human FcγR2A 131R [8] = molecular target: T3, human FcγR2A 131R; experiment: SPR 37C, steady state; hIgG1 D265A P238D Fc variant
# Protocol: (§3) For the low affinity FcγRs (FcγR2A, FcγR2B, FcγR3A and FcγR3B) the interactions were assessed by surface plasmon resonance with the recombinantly expressed FcRs (extracellular domains only) as analyte. Briefly, recombinant human BTLA extracellular domain (BTLA^K31-R151) was covalently immobilised to both flow cells of all channels of a CMS Series S sensor chip using the GE Healthcare Amine coupling kit. The 2.8.6 Fc variant to be assessed was then captured (approx. 500-1000 response units) in flow cell 2 of each channel. Steady state affinity analysis was then performed by injecting varying concentrations of FcR in multiple cycles and measuring equilibrium binding. Double referencing was used (subtracting the signal in the reference Fc1 and also subtracting the signal from a blank zero concentration injection). KDs were calculated from the Langmuir curves (plotting equilibrium binding against analyte concentration to determine the concentration required for half maximal binding).
# human FcγR2A 131H [9] = molecular target: T4, human FcγR2A 131H; experiment: as above
# Protocol: as §3
# human FcγR2B [10] = molecular target: T8, human FcγR2B; experiment: as above
# Protocol: as §3
# human FcγR1A [11] = molecular target: T2, human FcγR1A; experiment: SPR 37C, kinetic; hIgG1 N297A Fc variant
# Protocol: as §1
# human FcγR2A 131R [12] = molecular target: T3, human FcγR2A 131R; experiment: SPR 37C, steady state; hIgG1 N297A Fc variant
# Protocol: as §3
# human FcγR2A 131H [13] = molecular target: T4, human FcγR2A 131H; experiment: SPR 37C, steady state; hIgG1 N297A Fc variant
# Protocol: as §3
# human FcγR2B [14] = molecular target: T8, human FcγR2B; experiment: SPR 37C, steady state; hIgG1 N297A Fc variant
# Protocol: as §3
# human FcγR1A [15] = molecular target: T2, human FcγR1A; experiment: SPR 37C, kinetic; hIgG1 K322A Fc variant
# Protocol: as §2
# human FcγR2A 131H [16] = molecular target: T4, human FcγR2A 131H; experiment: SPR 37C, steady state; hIgG1 K322A Fc variant
# Protocol: as §3
# human FcγR2B [17] = molecular target: T8, human FcγR2B; experiment: SPR 37C, steady state; hIgG1 K322A Fc variant
# Protocol: as §3
# human FcγR3A 158F [18] = molecular target: T5, human FcγR3A 158F; experiment: SPR 37C, steady state; hIgG1 K322A Fc variant
# Protocol: as §3
# human FcγR3A 158V [19] = molecular target: T6, human FcγR3A 158V; experiment: SPR 37C, steady state; hIgG1 K322A Fc variant
# Protocol: as §3
# human FcγR3B [20] = molecular target: T7, human FcγR3B; experiment: SPR 37C, steady state; hIgG1 K322A Fc variant
# Protocol: as §3
binder,measurement,setting,value
B1,avidity (FcRn pH6),human FcRn,14 nM
same,binding result,human FcγR1A [1],no binding
same,Kd,human FcγR2A 131R [2],91.8 µM
same,Kd,human FcγR2A 131H [3],91.3 µM
same,binding result,human FcγR3A 158F [4],no binding
same,binding result,human FcγR3A 158V [5],no binding
same,binding result,human FcγR3B [6],no binding
same,Kd,human FcγR2B [7],398 µM
B2,binding result,human FcγR3A 158F [4],no binding
same,binding result,human FcγR3A 158V [5],no binding
same,binding result,human FcγR3B [6],no binding
same,Kd,human FcγR2A 131R [8],348 µM
same,Kd,human FcγR2A 131H [9],4590 µM
same,Kd,human FcγR2B [10],684 µM
B3,avidity (FcRn pH6),human FcRn,9.41 nM
same,binding result,human FcγR3A 158F [4],no binding
same,binding result,human FcγR3A 158V [5],no binding
same,binding result,human FcγR3B [6],no binding
same,Kd,human FcγR1A [11],8.7 µM
same,Kd,human FcγR2A 131R [12],447 µM
same,Kd,human FcγR2A 131H [13],2150 µM
same,Kd,human FcγR2B [14],1080 µM
B4,Kd,human FcγR1A [15],0.0052 µM
same,Kd,human FcγR2A 131H [16],4.6 µM
same,Kd,human FcγR2B [17],11 µM
same,Kd,human FcγR3A 158F [18],5.75 µM
same,Kd,human FcγR3A 158V [19],2.18 µM
same,Kd,human FcγR3B [20],11.9 µM
